Laboratory results reported in patent US20190218553, “VON WILLEBRAND FACTOR (VWF)-TARGETING AGENTS AND METHODS OF USING THE SAME” (DUKE UNIVERSITY, published 2019).
Positions count from the first letter of the chain named.

Assays:
[1] = target: T1, von Willebrand factor (VWF) (Homo sapiens, UniProt P04275 P04275:764-2813); assay: filter; Bmax 52%; 2 mM CaCl2, 37 C; conditions: tags: factor VIII free, Haematologic Technologies Inc; label: 5'-32P
Protocol: (§1) Affinity constants (Kd values) were determined using double-filter nitrocellulose filter binding assays (Rusconi et al, Thromb. Haemost. $4:841-848 (2000)). All binding studies were performed in binding buffer F (20 mM HEPES, pH 7.4, 150 mM NaCl, 2 mM CaCl₂, and 0.01% BSA) at 37° C. Human purified VWF (factor VIII free) was purchased from Haematologic Technologies Inc. (Essex Junction, Vt.) and used in the double-filter nitrocellulose filter binding assay to determine the Kd of the aptamers. Briefly, RNA were end-labeled at the 5′ end with T4 polynucleotide kinase (New England Biolabs, Beverly, Mass.) and [γ³²P] ATP (Amersham Pharmacia Biotech, Piscataway, N.J.) (Fitzwater and Polisky, Methods Enzymol. 267:275-301 (1996)). End-labeled RNA was diluted in binding buffer F, heat denatured at 65° C. for 5 minutes, and subsequently equilibrated at 37° C. Direct binding was performed by incubating trace ³²P-RNA with varying concentrations of VWF protein in binding buffer F at 37° C. for 5 min. The fraction of the nucleic acid-protein complex which bound to the nitrocellulose membrane was quantified with a phosphorimager (Molecular Dynamics, Sunnyvale, Calif.). Non-specific binding of the radiolabeled nucleic acid was subtracted out of the binding such that only specific binding remained (Wong and Lohman, Proc. Natl. Acad. Sci. USA 90:5428-5432 (1993)).

[2] = target: T1, von Willebrand factor (VWF); assay: filter; Bmax 79%; 2 mM CaCl2, 37 C; conditions: tags: factor VIII free, Haematologic Technologies Inc; label: 5'-32P
Protocol: as §1

[3] = target: T1, von Willebrand factor (VWF); assay: filter; Bmax 84%; 2 mM CaCl2, 37 C; conditions: Haematologic Technologies Inc, label: 5'-32P
Protocol: as §1

[4] = target: T1, von Willebrand factor (VWF); assay: filter; Bmax 75%; 2 mM CaCl2, 37 C; conditions: tags: factor VIII free human purified VWF, Haematologic Technologies Inc; label: 5'-32P
Protocol: as §1

[5] = target: T1, von Willebrand factor (VWF); assay: filter; Bmax 51%; 2 mM CaCl2, 37 C; conditions: tags: factor VIII free, Haematologic Technologies Inc; label: 5'-32P
Protocol: as §1

[6] = target: T1, von Willebrand factor (VWF); assay: filter; Bmax 10%; 2 mM CaCl2, 37 C; conditions: tags: factor VIII free, Haematologic Technologies Inc; label: 5'-32P
Protocol: as §1

[7] = target: T1, von Willebrand factor (VWF); assay: filter; Bmax 63%; 2 mM CaCl2, 37 C; conditions: tags: factor VIII free, Haematologic Technologies Inc; label: 5'-32P
Protocol: as §1

[8] = target: T1, von Willebrand factor (VWF); assay: filter; Bmax 72%; 2 mM CaCl2, 37 C; conditions: tags: factor VIII free human purified VWF, Haematologic Technologies Inc; label: 5'-32P
Protocol: as §1

[9] = target: T1, von Willebrand factor (VWF); assay: filter; Bmax 59%; 2 mM CaCl2, 37 C; conditions: tags: factor VIII free, Haematologic Technologies Inc; label: 5'-32P
Protocol: as §1

[10] = target: T1, von Willebrand factor (VWF); assay: filter; Bmax 50%; 2 mM CaCl2, 37 C; conditions: tags: factor VIII free, Haematologic Technologies Inc; label: 5'-32P
Protocol: as §1

[11] = target: T1, von Willebrand factor (VWF); assay: filter; Bmax 90%; 2 mM CaCl2, 37 C; conditions: tags: factor VIII free human purified VWF, Haematologic Technologies Inc; label: 5'-32P
Protocol: as §1

[12] = target: T1, von Willebrand factor (VWF); assay: filter; Bmax 68%; 2 mM CaCl2, 37 C; conditions: tags: factor VIII free, Haematologic Technologies Inc; label: 5'-32P
Protocol: as §1

[13] = target: T1, von Willebrand factor (VWF); assay: filter; Bmax 38%; 2 mM CaCl2, 37 C; conditions: tags: factor VIII free, Haematologic Technologies Inc; label: 5'-32P
Protocol: as §1

B1: T48 (ssRNA)
RNA: ACGAACUGCCCUCGACUUAUGUCGACGCACAGACGU
modifications: 2'-F C and U; 2'-OH A and G; 3' idT
Kd [1]: 12 nM

B2: T89 (ssRNA)
RNA: B1 RNA with A15U, C16A, G21U
modifications: 2'-F C and U; 2'-OH A and G; 3' idT
Kd [2]: 12 nM

B3: T89 vrt1 (ssRNA)
RNA: B1 RNA with A15U, C16A, G21U
modifications: 2'-F C2,U7,C9,C10,C11,U12,C26,C28,C34,U36; ribo A1,G3,G8,A25,G27,A29,G35; rest 2'-OMe; 3' idT
Kd ([3]; tags: factor VIII free human purified VWF): 1.2 nM

B4: T89 vrt7 (ssRNA)
RNA: B1 RNA with A15U, C16A, G21U
modifications: 2'-F C9,C10,C11,C26,G27,C28; rest 2'-OMe; 3' idT
Kd [4]: 38.5 nM

B5: T10 (ssRNA)
RNA: GGGAGGUGGACGAACUGCCCUCAGCUACUUUCAUGUUGCUGACGCACAGACGACUCGCUG
modifications: 2'-F C and U; 2'-OH A and G; 3' idT
Kd [5]: 18.4 nM

B6: T63 (ssRNA)
RNA: ACGAACGCCCUCGAUUAUUCGACGCACGACGU
modifications: 2'-F C and U; 2'-OH A and G; 3' idT
Kd [6]: 83 nM

B7: T81 (ssRNA)
RNA: ACGAACUGCCCUCGAUCGACGCACAGACGUACACA
modifications: 2'-F C and U; 2'-OH A and G; 3' idT
Kd [7]: 4.2 nM

B8: T84 vrt1 (ssRNA)
RNA: B7 RNA with A35G
modifications: 2'-F C2,U7,C9,C10,C11,U12,C20,C22,C28,U30; ribo A1,G3,G8,A19,G21,A23,G29; rest 2'-OMe; 3' idT
Kd [8]: 1.7 nM

B9: T59 vrt7 (ssRNA)
RNA: ACGAACUGCCCUCGAUCGACGCACAGACGU
modifications: mAfCmGmAmAmCfUrGfCfCfCfUmCmGmAmUmCmGrAfCrGfCrAmCmAmGmAfCmGfU-idT
Kd ([3]; tags: factor VIII free): 0.8 nM

B10: T77 (ssRNA)
RNA: AAAAACGAACUGCCCUCGAUCGACGCACAGACGU
modifications: 2'-F C and U; 2'-OH A and G; 3' idT
Kd [9]: 8.8 nM

B11: T39 (ssRNA)
RNA: ACGAACUGCCCUCAGACUUUCAUGUCUGACGCACAGACGU
modifications: 2'-F C and U; 2'-OH A and G; 3' idT
Kd [10]: 11 nM

B12: T69 (ssRNA)
RNA: ACGAACUGCCCUGAUUAUUCACGCACAGACGU
modifications: 2'-F C and U; 2'-OH A and G; 3' idT
Kd [1]: 26 nM

B13: T94 vrt1 (ssRNA)
RNA: B12 RNA with G13C, A14U, A17U, C20G
modifications: 2'-F C2,U7,C9,C10,C11,U12,C22,C24,C30,U32; ribo A1,G3,G8,A21,G23,A25,G31; rest 2'-OMe; 3' idT
Kd [11]: 0.9 nM

B14: T37 (ssRNA)
RNA: ACGAACUGCCCUCAGCUACUUAUGUUGCUGACGCACAGACGU
modifications: 2'-F C and U; 2'-OH A and G; 3' idT
Kd [12]: 10 nM

B15: T25 vrt3 (ssRNA)
RNA: ACGAACUGCCCUCAGCUACUUUCAUGUUGCUGACGCACAGACGU
modifications: mAfCmGrArAfCfUrGfCfCfCfUfCrArGfCfUrAfCfUfUfUfCrAfUrGfUfUrGfCfUrGrAfCrGfCrAfCrArGrAfCmGfU-idT (m=2'-OMe, f=2'-F, r=2'-OH)
Kd [13]: 9.2 nM
